Eight molecules from US20220325265A1, “GLUCOCEREBROSIDASE MUTANTS” (Hoffmann-la Roche Inc., priority 2019, published 2022) can be followed below.

A short description of data set [1]: pH screening of hGCase variants (activity assay, pH 3.5-8). It counts as biochemical. The settings on record: for relative activity: highest activity = 100%; for pH optimum: pH range 3.5-8, 75 nM protein, 100% relative activity; for shape of pH spectrum: pH 3.5-8. The protocol:
For all further GCase characterization experiments including the activity assay, 20 μM substrate concentration, 30-40 min incubation time and protein concentrations ranging from 25-100 nM were set as final assay settings to ensure measurements in the linear range. The overall DMSO concentration within the assay was kept at 0.5% (v/v) or even below, since DMSO influences the fluorescent signal with higher concentrations (experimentally tested, data not shown; confirmed by (Urban et al., 2008). Therefore, GCase activity buffer+1% (v/v) DMSO was also used for dilutions (table 2.9). The plate reader SpectraMax i3 (Molecular Devices) including the analysis software SoftMax Pro 6.4 was used for all activity measurements within this work. The program settings were kept the same for all activity runs: kinetic run, measurement temperature: 37° C., PMT Gain: high; flashes per read: 6; read height: 0.73305 mm from plate.
A pH optimum screening was done to observe a possible shift in the pH spectrum of the new variants due to structural modification of the enzymes. Therefore, three different buffers were used, covering a pH range of pH 3.5 to 8. For the screening, buffer substances were chosen after the use for purification buffers. Therefore, following buffers were prepared: Citric acid buffer (20 mM, pH 3.5-5), MES buffer (20 mM, pH 6-6.5) and HEPES buffer (20 mM, pH 7-8). The final protein concentration used for this assay was 75 nM. The activity assay was done as described in section 2.3.5 (table 2.11), merely the buffer was varied.
A possible pH optimum shift due to structural modifications should be examined. Since the GCase enzyme originally occurs within the lysosome, its natural pH optimum is reported to be between pH 4.7-6.0 (Lieberman et al., 2007; Liou et al., 2006; Tan et al., 2014). This could change when including slight modifications in the structure of the molecule. Thus, the mutants were tested within a pH range of 3.5 to 8 for enzymatic activity.

Data set [2] can be described thus: Determination of the kinetic parameters (Michaelis-Menten) with artificial substrate. Type of data set: biochemical. The note with it: for kcat: protein concentration used: 25 nM; for Km / Vmax: res-β-glc 4-500 μM, 25 nM protein. The protocol:
The kinetic parameters were examined using the artificial substrate resorufin-β-glucopyranoside (Sigma-Aldrich). For the determination, final concentrations of substrate ranging from 4-500 μM were tested. The assay followed the activity assay instructions in section 2.3.5. 25 nM final protein concentration was used for each construct. The incubation time was set to 30 min to ensure measurements in the linear signal range. The kinetics were evaluated and plotted according to Michaelis-Menten (Cornish-Bowden, 2013; Johnson, 2015). KM, Vmax was calculated by GraphPad Prism7 applying the Michaelis-Menten fit equation provided by the program. The equation model follows: […]
with: • KM: Michaelis-Menten constant [μM] • Vmax: maximum velocity of reaction [μM/min]
The kinetic parameter kcat is defined as the catalytic constant, representing the turnover number of substrate to product per time unit (here per second) (Eisenthal et al., 2007). kcat can be calculated as follows: […]
with: • kcat: turnover number [min-1] • Vmax: maximum velocity of reaction [μM/min] • [E]tot.: total enzyme concentration [nM]
Another kinetic key parameter to describe the catalytic efficiency of enzymes is the parameter kcat/KM, measured in [μM−1*s−1] in this work (Eisenthal et al., 2007).
Determining enzyme kinetic key parameters gives solid information about the efficiency and efficacy of an enzyme and how certain mutations can impact its functionality. For the determination and comparison of the enzymatic performances, KM, Vmax and kcat as well as kcat/KM were calculated for the different hGCase variants, respectively (Eisenthal et al., 2007). The according assay was performed as described in section 2.5.5, all measured with the artificial substrate res-3-glc. KM and Vmax determination for representative mutant M53T/P55T was done applying the Michaelis-Menten curve fit (GraphPad Prism7; see equation 4) as shown in the following.
The kinetic raw data is depicted in FIG. 5 (A) with progression curves following pseudo first order in a linear measurement range with a good reproducibility and low variance. The slopes of the progression curves can be replotted, with velocities V [μM/min] plotted as a function of substrate concentration [S] applied, resulting in a typical course of a Michaelis-Menten curve (Cornish-Bowden, 2013; Johnson, 2015).

In the next data set the target is hGCase. Description: Inhibition of hGCase using isofagomine (IFG), IC50 determination. Type of data set: biochemical, human. The settings on record: reversible inhibitor isofagomine on the named hGCase variant; 25 nM protein, 10 min pre-incubation at RT, 20 μM res-β-glc. The procedure: IFG is a competitive, reversible inhibitor of hGCase, interacting with the active pocket of the enzyme (Powe et al., 2006).
To calculate the IC50, a concentration range of 0.002-100 μM IFG was tested. IFG was prepared with a stock concentration of 1 mM in DMSO. The final enzyme concentration was 25 nM. After adding the inhibitor to the enzyme, the solution was pre-incubated for 10 min at RT before adding the substrate (20 μM) for the activity measurement.
The evaluation and IC50 determination were done using GraphPad Prism7. hGCase activity with no inhibitor added was set to 100% relative enzyme activity. In case of evaluating the raw data via GraphPadPrism7, the applied inhibitor concentrations were first transformed to log 10×-values plottet on the x-axis. Further, the raw data measured with the activity assay in RFU was normalized to the highest activity value within one data set (equals 100%). 100% signal was defined as 10-12 μM IFG (=no inhibitor added). Data points were fitted and IC50 values were determined using log(inhibitor) vs. response-variable slope (four parameters) (GraphPadPrism7) following equation 9: […]
To determine whether the active binding site of an enzyme is compromised or altered, IC50 values were calculated for active site inhibitor and compared. In this work, the natural occurring GCase inhibitor isofagomine (IFG) and conditurol-β-epoxide (CBE) were used. IFG is known as a reversible inhibitor, interacting with the active site of the GCase enzyme, whereas CBE is an irreversible inhibitor of GCase (Powe et al., 2006). The IC50 of an enzyme is defined as the concentration of an inhibitor, where the response, in this case the enzyme activity, is reduced by half (Kalliokoski et al., 2013). Both assays were conducted as described in section 2.5.6. The inhibitor profiles of M53T/P55T using IFG and CBE as well as the IC50 profiles of all residual mutants combined are shown in FIG. 4.
The raw data was plotted by transforming the applied IFG/CBE concentration to a logarithmic scale (x-axis, FIG. 4) and by normalizing the activity signal with highest signal of each data set to 100% (defined with apparent inhibitor concentration of 10-12 μM, equal to no inhibitor). IC50 values were calculated using GraphPad Prism7 following equation 9.

Where [3] appears, read: pH 3.5, 20 mM citric acid buffer.

Changes are numbered by the printed parent chain. Names and notes keep the numbering of the source. Values joined by “and” are separate entries in the source; they are usually repeats but may differ in a detail not shown here. Identical values can stand only once.

B1: R495HS2: hGCase based on the Cerezyme sequence (R495H) but produced in S2 cells, His8-tagged; Seq. Id. No. 1 (protein, listed as Homo sapiens)
chain: ARPCIPKSFGYSSVVCVCNATYCDSFDPPTFPALGTFSRYESTRSGRRMELSMGPIQANHTGTGLLLTLQPEQKFQKVKGFGGAMTDAAALNILALSPPAQNLLLKSYFSEEGIGYNIIRVPMASCDFSIRTYTYADTPDDFQLHNFSLPEEDTKLKIPLIHRALQLAQRPVSLLASPWTSPTWLKTNGAVNGKGSLKGQPGDIYHQTWARYFVKFLDAYAEHKLQFWAVTAENEPSAGLLSGYPFQCLGFTPEHQRDFIARDLGPTLANSTHHNVRLLMLDDQRLLLPHWAKVVLTDPEAAKYVHGIAVHWYLDFLAPAKATLGETHRLFPNTMLFASEACVGSKFWEQSVRLGSWDRGMQYSHSIITNLLYHVVGWTDWNLALNPEGGPNWVRNFVDSPIIVDITKDTFYKQPMFYHLGHFSKFIPEGSQRVGLVASQKNDLDAVALMHPDGSAVVVVLNRSSKDVPLTIKDPAVGFLETISPGYSIHTYLWHRQ
modifications: His8 tag
In data set [1] (setting [3]), B1 came in with a relative activity of 80%. In data set [2], the kcat worked out at 0.05 s⁻¹; the Km was determined as 189 ± 45.5 µM; the Vmax is 0.08 ± 0.01 µM/min and 0.08 µM/min. Further, it took 17 nM to reach half-maximal inhibition at hGCase (IC50).

B2: I5N: recombinant human β-glucocerebrosidase variant R495H/I5N, S2 cells; Seq. Id. No. 4 (protein, listed as Homo sapiens)
chain: B1 chain with I5N
notes: recombinant human β-glucocerebrosidase variant R495H/I5N, S2 cells; Id; No. 4
Consider B2, for which the relative activity in data set [1] (setting [3]) was 75%. For the same molecule, the “activity at pH 8” value in data set [1] (pH 8, 20 mM HEPES buffer) is “completely inactive”. In addition, in data set [2], the kcat was determined as 0.09 s⁻¹, the Km was 118 µM and the Vmax was 0.14 µM/min. Further, the IC50 against hGCase is 26 ± 3 nM.

B3: F31Y: recombinant human β-glucocerebrosidase variant R495H/F31Y, S2 cells; Seq. Id. No. 5 (protein, listed as Homo sapiens)
chain: B1 chain with F31Y
notes: recombinant human β-glucocerebrosidase variant R495H/F31Y, S2 cells; Id; No. 5
As for B3, the relative activity in data set [1] (setting [3]) is given as ~80%. The pH optimum in data set [1] was 6 pH. Also, in data set [2], the turnover number (kcat) was determined as 0.07 s⁻¹, the Km was 96.6 µM and the Vmax is 0.11 µM/min. The molecule further came in with an IC50 against hGCase of 28 ± 3 nM.

B4: imiglucerase (protein, UniProt P04062 40-536, looked up, variant R495H)
Lysosomal acid …: B1 chain
modifications: imiglucerase; CHO-produced
notes: Commercially available Cerezyme (imiglucerase, Genzyme), hGCase R495H produced in CHO cells
As for B4, the loss of activity in data set [1] (setting [3]) came out at 40%. For the same molecule, in data set [2], the kcat amounted to 0.09 s⁻¹, the Km is 131 µM and the Vmax is 0.14 µM/min. The IC50 on hGCase turned out to be 27 ± 6 nM.

B5: M53T/P55T: recombinant human β-glucocerebrosidase variant R495H/M53T/P55T, S2 cells; Seq. Id. No. 7 (protein, listed as Homo sapiens)
chain: B1 chain with M53T, P55T
notes: recombinant human β-glucocerebrosidase variant R495H/M53T/P55T, S2 cells; Id; No. 7
As for B5, in data set [1] (setting [3]), the relative activity is reported as 80%. Further, in data set [1], the “shape of pH spectrum” value was “more bell-shaped pH spectrum”. In data set [2], the kcat came out at 0.09 s⁻¹; the Michaelis constant (Km) came to 100 ± 15.8 µM; the Vmax was 0.13 ± 0.01 µM/min and 0.13 µM/min. The IC50 against hGCase was ~40 nM and 40 nM.

B6: K321N: Amicus single mutant hGCase R495H/K321N produced in S2 cells; Seq. Id. No. 2 (protein, listed as Homo sapiens)
chain: B1 chain with K321N
notes: Amicus single mutant hGCase R495H/K321N produced in S2 cells; Id; No. 2
Take B6: in data set [2], the kcat amounted to 0.09 s⁻¹, the Km stood at 131 µM and the Vmax is 0.14 µM/min. For the same molecule, it took 28 ± 3 nM to reach half-maximal inhibition against hGCase (IC50).

B7: K321N/H145L: Amicus double mutant hGCase R495H/K321N/H145L produced in S2 cells; Seq. Id. No. 3 (protein, listed as Homo sapiens)
chain: B1 chain with H145L, K321N
notes: Amicus double mutant hGCase R495H/K321N/H145L produced in S2 cells; Id; No. 3
B7: the “shape of pH spectrum” value in data set [1] was “more bell-shaped pH spectrum”. In data set [2], the kcat was 0.09 s⁻¹; the Michaelis constant (Km) was 158 µM and 156 µM; the Vmax worked out at 0.13 µM/min. For the same molecule, half-maximal inhibition against hGCase (IC50) was put at 35 ± 11 nM.

B8: L34Q: recombinant human β-glucocerebrosidase variant R495H/L34Q, S2 cells; Seq. Id. No. 6 (protein, listed as Homo sapiens)
chain: B1 chain with L34Q
notes: recombinant human β-glucocerebrosidase variant R495H/L34Q, S2 cells; Id; No. 6
B8: the relative activity in data set [1] (setting [3]) is given as ~80%. Moreover, the pH optimum in data set [1] amounted to 6 pH. Besides, in data set [2], the turnover number (kcat) was 0.11 s⁻¹; the Km amounted to 143 µM; the maximum rate (Vmax) was 0.17 ± 0.01 µM/min and 0.17 µM/min. Besides, on hGCase, the 50% inhibitory concentration (IC50) was determined as 22 ± 4 nM.

As a reminder, the kcat is the number of substrate molecules converted per active site and unit of time at saturation. For orientation: Km means the concentration of substrate that gives half-maximal velocity. The term Vmax denotes the rate approached at saturating substrate. The IC50 is the midpoint of a concentration-inhibition curve. Higher therefore signals lower potency.
